Data from patent US7897568B2, “Compositions for treatment of cancer” (priority 2006, dated 2011).
Where no end group is shown, it is not given here.

Molecular target: T1, GST-SNCG (Homo sapiens, UniProt O76070)
T1 construct: The SNCG coding region was amplified from the human cDNA clone; made in house; host or cells: Escherichia coli BL21 (DE3)
Test: GST pull-down of EGFP-ANK with GST-SNCG
Type: binding
Settings: FIG. 5D, GST as control
Excerpt: FIGS. 5A through 5D show co-localization, co-immunoprecipitation (co-IP) and GST pull down experiments, using an enhance green fluorescent protein (EGFP)-ANK fusion protein, which confirm that SNCG associates with the ANK peptide in vivo. FIG. 5A is a western blot depicting detection of EGFP-ANK expression in COS7 cells. Lanes 2 and 3 were samples transfected with different clones, cl-4 and cl-8, respectively, of pEGFP-ANK plasmid. In FIG. 5B, MCF7-SNCG cells were transfected with pEGFP-ANK, fixed on a cover slip, permeabilized and probed with anti-SNCG and anti-GFP antibodies to observe co-localization. Fluorescent cells were visualized using an ×100 objective (oil) on an inverted confocal microscope (Leica). FIGS. 5C and 5D are western blots showing association of SNCG and ANK peptide as evidenced by co-IP of SNCG with EGFP-ANK in MCF7-SNCG and MCF7-neo cells. In these experiments, MCF7-SNCG and MCF7-neo cells were transfected with pEGFP-ANK or pEGFP plasmids. […]
GST-SNCG (20 μg) protein or GST alone was added to a pre-equilibrated slurry of glutathione-sepharose 4B and incubated for 60 minutes. […] After extensive washes, the beads were collected, boiled in sample buffer, separated on 12% SDS gel and analyzed by western blotting. […]

T1 sequence (O76070 whole entry): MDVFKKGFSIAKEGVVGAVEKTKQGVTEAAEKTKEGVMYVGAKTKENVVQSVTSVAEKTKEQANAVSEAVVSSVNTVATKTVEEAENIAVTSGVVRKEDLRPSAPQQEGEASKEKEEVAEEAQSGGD

## EGFP-ANK: ANK peptide expressed as a fusion protein with its amino-terminal linked to EGFP protein, approximately 37 kDa ({EGFP}-KGNSALHVASQHGHLGCIQTLVRYGANVTMQNHG)
  pull down by GST-SNCG: SNCG is capable of immunoprecipitating EGFP-ANK
